# Laboratory results taken from patent publication US20110104163A1 (US Dept. of Health and Human Services, published 2011).
# B1: m36 (VHH)
# VHH: QVQLVQSGGGLVQPGGSLRLSCAASAFDFSDYEMSWVRQAPGKGLEWIGEINDSGNTIYNPSLKSRVTISRDNSKNTLYLQMNTLRAEDTAIYYCAIYGGNSGGEYWGQGTLVTVSS
# notes: Human VH domain antibody, monomeric, made in E. coli with His and FLAG tags; also called b5; dAb m36
# How the values were obtained:
# [1] = target: T1, single-chain fusion protein gp120Bal-CD4 (HIV-1 isolate Bal, UniProt P01730 26-208); assay: ELISA, soluble VH on coated gp120-CD4
# T1 construct: Gift from T. Fouts; Coated on ELISA plates; also called gp120-CD4; Bal gp120-CD4; not shown: junction or linker between gp120 and CD4 not described (gift, Fouts et al. 2000)
# soluble CD4 = target: T2, soluble CD4 (UniProt P01730 26-396, limits assumed); assay: ELISA, plate coated with 1 µg/ml antigen, m36 detected with HRP anti-FLAG
# T2 construct: also called sCD4
# bovine serum albumin = target: T3, bovine serum albumin (bovine, UniProt P02769 25-607); assay: as above
# T3 construct: also called BSA
# [2] = target: T1, single-chain fusion protein gp120Bal-CD4; assay: ELISA, serially diluted m36 on coated antigen, anti-FLAG detection
# T3 sequence (P02769 25-607 limits assumed): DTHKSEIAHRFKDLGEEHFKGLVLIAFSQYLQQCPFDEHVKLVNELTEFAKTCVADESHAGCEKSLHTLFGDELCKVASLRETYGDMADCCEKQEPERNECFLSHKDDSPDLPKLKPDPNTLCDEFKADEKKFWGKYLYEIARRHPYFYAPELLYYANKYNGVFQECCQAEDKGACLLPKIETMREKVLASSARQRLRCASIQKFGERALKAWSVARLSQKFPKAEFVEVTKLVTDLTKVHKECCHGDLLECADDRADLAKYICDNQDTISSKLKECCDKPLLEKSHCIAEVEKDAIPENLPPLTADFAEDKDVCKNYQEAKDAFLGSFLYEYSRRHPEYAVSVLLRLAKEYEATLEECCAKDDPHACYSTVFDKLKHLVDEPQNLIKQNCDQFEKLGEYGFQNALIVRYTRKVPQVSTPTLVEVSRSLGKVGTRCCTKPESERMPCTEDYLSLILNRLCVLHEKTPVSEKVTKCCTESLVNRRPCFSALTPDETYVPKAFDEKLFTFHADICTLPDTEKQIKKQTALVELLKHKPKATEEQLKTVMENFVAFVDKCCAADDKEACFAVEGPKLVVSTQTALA
binder,measurement,setting,value
B1,EC50,[1],0.04 µg/mL
same,binding result,soluble CD4,no binding (tested: 10 µg/ml)
same,binding result,bovine serum albumin,no binding (tested: 10 µg/ml)
same,EC50,[2],~2.5 nM
